Sequences and labels used below:
B1: Protein PTHB1 (Homo sapiens), Q3SYG4 (parent)
chain: MSLFKARDWWSTILGDKEEFDQGCLCLANVDNSGNGQDKIIVGSFMGYLRIFSPHPAKTGDGAQAEDLLLEVDLRDPVLQVEVGKFVSGTEMLHLAVLHSRKLCVYSVSGTLGNVEHGNQCQMKLMYEHNLQRTACNMTYGSFGGVKGRDLICIQSMDGMLMVFEQESYAFGRFLPGFLLPGPLAYSSRTDSFLTVSSCQQVESYKYQVLAFATDADKRQETEQQKLGSGKRLVVDWTLNIGEQALDICIVSFNQSASSVFVLGERNFFCLKDNGQIRFMKKLDWSPSCFLPYCSVSEGTINTLIGNHNNMLHIYQDVTLKWATQLPHIPVAVRVGCLHDLKGVIVTLSDDGHLQCSYLGTDPSLFQAPNVQSRELNYDELDVEMKELQKIIKDVNKSQGVWPMTEREDDLNVSVVVSPNFDSVSQATDVEVGTDLVPSVTVKVTLQNRVILQKAKLSVYVQPPLELTCDQFTFEFMTPDLTRTVSFSVYLKRSYTPSELEGNAVVSYSRPTDRNPDGIPRVIQCKFRLPLKLICLPGQPSKTASHKITIDTNKSPVSLLSLFPGFASQSDDDQVNVMGFHFLGGARITVLASKTSQRYRIQSEQFEDLWLITNELILRLQEYFEKQGVKDFACSFSGSIPLQEYFELIDHHFELRINGEKLEELLSERAVQFRAIQRRLLARFKDKTPAPLQHLDTLLDGTYKQVIALADAVEENQGNLFQSFTRLKSATHLVILLIALWQKLSADQVAILEAAFLPLQEDTQELGWEETVDAAISHLLKTCLSKSSKEQALNLNSQLNIPKDTSQLKKHITLLCDRLSKGGRLCLSTDAAAPQTMVMPGGCTTIPESDLEERSVEQDSTELFTNHRHLTAETPRPEVSPLQGVSE
partner: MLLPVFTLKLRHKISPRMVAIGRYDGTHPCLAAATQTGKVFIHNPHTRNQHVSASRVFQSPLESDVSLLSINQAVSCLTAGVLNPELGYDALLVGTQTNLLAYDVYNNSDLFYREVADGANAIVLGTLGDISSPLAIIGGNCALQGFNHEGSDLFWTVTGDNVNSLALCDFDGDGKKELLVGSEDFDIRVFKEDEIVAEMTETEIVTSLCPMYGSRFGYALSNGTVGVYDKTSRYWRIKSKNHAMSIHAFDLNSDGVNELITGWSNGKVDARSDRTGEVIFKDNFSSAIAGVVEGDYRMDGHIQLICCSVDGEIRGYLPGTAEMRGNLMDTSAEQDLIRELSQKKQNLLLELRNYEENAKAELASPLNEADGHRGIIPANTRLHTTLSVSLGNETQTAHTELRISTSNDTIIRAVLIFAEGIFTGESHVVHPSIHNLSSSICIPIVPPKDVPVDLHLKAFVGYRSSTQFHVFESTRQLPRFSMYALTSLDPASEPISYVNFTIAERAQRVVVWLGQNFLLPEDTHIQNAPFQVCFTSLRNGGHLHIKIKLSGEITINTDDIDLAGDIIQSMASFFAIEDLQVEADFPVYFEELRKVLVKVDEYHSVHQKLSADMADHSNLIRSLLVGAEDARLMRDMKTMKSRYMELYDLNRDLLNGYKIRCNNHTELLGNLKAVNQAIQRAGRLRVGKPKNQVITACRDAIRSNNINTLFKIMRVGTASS

The assay covers variants of B1. Conditions: with bbs2_human BBS2, Q9BXC9.
As to N553T, the “effect of a mutation on the interaction” value was “disrupting interaction strength”. The same measure for N553A: “with no effect”; for N553K: “with no effect”. As to N553E, the “effect of a mutation on the interaction” value is on record as “with no effect”. For the variant L559K, the “effect of a mutation on the interaction” value is “with no effect”. As for L559E, the “effect of a mutation on the interaction” value is “with no effect”. Turning to L559R, the “effect of a mutation on the interaction” value is on record as “disrupting interaction strength”.

With L559A, the “effect of a mutation on the interaction” value was “with no effect”. The entry for F563A is “with no effect”; for F563E it is “with no effect”. Take F563K: the “effect of a mutation on the interaction” value was “with no effect”. The entry for S555K is “with no effect”; for S555E it is “with no effect”. The entry for S555A is “with no effect”; for S558N it is “disrupting interaction strength”; for S558E it is “with no effect”.

For the variant S558K, the “effect of a mutation on the interaction” value was “with no effect”. S558A: the “effect of a mutation on the interaction” value is reported as “with no effect”. Turning to A544E, the “effect of a mutation on the interaction” value was “with no effect”. The entry for A544K is “with no effect”; for H546K it is “with no effect”; for H546E it is “with no effect”. In the case of H546A, the “effect of a mutation on the interaction” value was “with no effect”. The same measure for P540K: “with no effect”. For the variant P540E, the “effect of a mutation on the interaction” value was “with no effect”. The same measure for P540A: “with no effect”; for D551A: “with no effect”; for D551E: “with no effect”. The same measure for D551K: “with no effect”. The same measure for K554A: “with no effect”. With K554E, the “effect of a mutation on the interaction” value is recorded as “with no effect”. The entry for K554S is “disrupting interaction strength”; for I548E it is “with no effect”; for I548K it is “with no effect”.

In the case of I548A, the “effect of a mutation on the interaction” value is “with no effect”. Consider V557A, for which the “effect of a mutation on the interaction” value is on record as “with no effect”. The same measure for V557K: “with no effect”; for V557E: “with no effect”; for I550E: “with no effect”. Take I550A: the “effect of a mutation on the interaction” value is reported as “with no effect”. In the case of I550K, the “effect of a mutation on the interaction” value is given as “with no effect”. The same measure for T552K: “with no effect”; for T552E: “with no effect”; for T552A: “with no effect”. The same measure for K547A: “with no effect”; for K547E: “with no effect”.

For the origin of these results see IntAct's records for PubMed 29039417.
